Test results from patent US20090235392A1 (PIONEER HI BRED INTERNATIONAL, published 2009).

Target: T1, GAL4BD:CKI2(590-922) (Arabidopsis thaliana)
T1 construct: Yeast two-hybrid bait; Any linker or tag from the vector is not described; also called AT-CKI2(590-922); pRM430
Assay: yeast two-hybrid
Text: Clones representing two independent genes, ARABIDOPSIS HISTIDINE PHOSPHOTRANSFER PROTEIN 3 (AHP3, At5G39340) and At3G28690, a putative serine/threonine protein kinase, were identified from the library screen with GAL4BD:CKI2(590-922). AHPs are the described signaling targets of canonical receptor histidine kinases, such as CRE1, AHK1 and ETR1 (Grefen and Harter, 2004). […] At3G28690 is homologous to the previously published ARABIDOPSIS PROTEIN KINASE 1 (APK1) (Hirayama and Oka, 1992) and APK2 (Ito, et al., 1997) and is designated APK3. […] APK3 has been classified as a Receptor Like Cytoplasmic Kinase (RLCK) VII (Family 1.2.2) in Arabidopsis. […] Its use in modulation of cytokinin-dependent growth responses is being pursued through both transgenic and mutant analysis.
The yeast two-hybrid assays discussed in Example 1 were conducted as follows. Polyadenylated mRNA was isolated from Arabidopsis aerial tissue using a FastTrack™ mRNA kit (Invitrogen, Carlsbad, Calif., USA). First strand cDNA was created using a cDNA synthesis kit (Stratagene, La Jolla, Calif., USA), subsequently cloned into pGADT7 (Clontech, Palo Alto, Calif., USA), and the cDNA library was transformed into the yeast strain AH109 (Clontech).

B1: full-length APK3 fusion protein (other)
chain: MATKLESFKVVEKLGVEKGEKGKMMSKKKNVKKDGDESESGFWFRFKFIFSCISSRSKVDSSMNATAVIAEPKKVIEKLEGHPAPTKDTGCAESGSSTPLMSGELKYSSKLRIFMFNDLKLATRNFRPESLLGEGGFGCVFKGWIEENGTAPVKPGTGLTVAVKTLNPDGLQGHKEWLAEINFLGNLVHPSLVKLVGYCMEEDQRLLVYEFMPRGSLENHLFRRTLPLPWSVRMKIALGAAKGLAFLHEEAEKPVIYRDFKTSNILLDGEYNAKLSDFGLAKDAPDEKKSHVSTRVMGTYGYAAPEYVMTGHLTTKSDVYSFGVVLLEILTGRRSVDKSRPNGEQNLVEWVRPHLLDKKRFYRLLDPRLEGHYSIKGAQKATQVAAQCLNRDSKARPKMSEVVEALKPLPNLKDFASSSSSFQTMQPVAKNGVRTQGGGFVSRNGPPMRSLSSLNLPQASPYRYARQSPKPKGKEP
notes: Full-length APK3 tested as a fusion protein in the two-hybrid assay; also called AtAPK3; At3G28690; not shown: two-hybrid fusion partner
- binding result: no binding

B2: APK3(115-476) (other)
chain: MFNDLKLATRNFRPESLLGEGGFGCVFKGWIEENGTAPVKPGTGLTVAVKTLNPDGLQGHKEWLAEINFLGNLVHPSLVKLVGYCMEEDQRLLVYEFMPRGSLENHLFRRTLPLPWSVRMKIALGAAKGLAFLHEEAEKPVIYRDFKTSNILLDGEYNAKLSDFGLAKDAPDEKKSHVSTRVMGTYGYAAPEYVMTGHLTTKSDVYSFGVVLLEILTGRRSVDKSRPNGEQNLVEWVRPHLLDKKRFYRLLDPRLEGHYSIKGAQKATQVAAQCLNRDSKARPKMSEVVEALKPLPNLKDFASSSSSFQTMQPVAKNGVRTQGGGFVSRNGPPMRSLSSLNLPQASPYRYARQSPKPKGKEP
notes: Second truncated APK3 tested as a fusion protein in the two-hybrid assay; also called second truncated APK3 protein; At3G28690; not shown: two-hybrid fusion partner
- binding result: no binding
